Measured values reported in patent US20220017636A1 (Amgen, published 2022).
Positions count from the first letter of the chain named.

B1: 18182-B5 (scFv)
scFv: EVQLLESGGGLVQPGGSLRLSCAASGFTFSSHAMSWVRQAPGKGLEWVSAISGSGGGTYYADSVKGRFTISRDNSKNTLYLQMNSLRAEDTAVYYCATGKGVHLGFDYWGQGTLVTVSSGGGGSGGGGSGGGGSELVLTQPPSVSVAPGQTARITCGGNNIGSKSVHWYQQKPGQAPVLVVYDDNDRPSGIPERFSGSNFGNTATLIISRVEAGDEADYYCQVWDSSSDHVVFGGGTKLTVL
notes: scFv in bacterial lysate, detected with anti-Flag M2
B2: 18182-E5 (scFv)
scFv: B1 scFv with H32Y, A50T, Y169H, F200S, I207T, S226Y
notes: as for B1
B3: 18182-G8 (scFv)
scFv: B1 scFv with Q13K, H32Y, S35N, V64G, G105N, L179M, F200S, I207T
notes: as for B1
B4: 18182-G6 (scFv)
scFv: B1 scFv with H32Y, V93A, A97V, Y169H, A176S, V181I, S198F, F200S, I207T
notes: as for B1
B5: 18182-E6 (scFv)
scFv: B1 scFv with H32Y, G105N, P142S, E212A
notes: as for B1
B6: 18182-E10 (scFv)
scFv: EVQLLESGGGLVQPGGSLRLSCAASGFTFSSHAMSWVRQAPGQGLEWVSSISGSGGGTYYAASVKGRFTISRDNSKNTLYLQMNSLRAEDTAVYYCATGKGVHLNFDYWGQGTLVTVSSGGGGSGGGGSGGGGSELALTQPASASVAPGQTARITCGGNNIGSKSVHWHQQKPGQAPVLVVYDDNDRPSGIPERFSGSNSGNTATLTISRVEAGDEADFYCQVWDSSSDHVVFGGGTKLTVL
notes: as for B1
B7: 18182-H12 (scFv)
scFv: B1 scFv with H32Y, A50T, V137M, P142H
notes: as for B1
B8: 18182-A4 (scFv)
scFv: B1 scFv with L11V, G16R, H32Y, S35T, K43Q, A50S, D62A, E212A
notes: as for B1
B9: 18182-E1 (scFv)
scFv: B1 scFv with Y60N, V93A, A97V, L179M, F200S, I207T
notes: as for B1
B10: 18182-B12 (scFv)
scFv: B1 scFv with H32Y, N84S, Y169H, F200S, I207T, S226Y
notes: as for B1
B11: 18182-G2 (scFv)
scFv: B1 scFv with Y60N, V93A, A97V, L179M, F200S, I207T, V232I
notes: as for B1
B12: 18182-H9 (scFv)
scFv: B1 scFv with G66A, Y169H, F200S, I207T, Y219F
notes: as for B1
B13: 18179-G12 (scFv)
scFv: EVQLLESGAEVKKPGASVKVSCKASGYTFTRNGLSWVRQAPGQGLEWMGWISGYNGDTNYAQKLQGRGTMTTDTSTSTAYMELRSLRSDDTAVYYCARGRATFDYWGQGTLVTVSSGGGGSGGGGSGGGGSELVMTQSPSSLSASVGDRVTITCRASQGISNYLAWYQQKPGKVPKLLISAASTLQSGVPSRFSGSGSGTDFTLTISSLQPEDVATYYCQKYNSAPFTFGPGTKLEIK
notes: as for B1
B14: 18179-C1 (scFv)
scFv: B13 scFv with L235V, E236D
notes: as for B1
B15: 18089-D12 (scFv)
scFv: EVQLLESGGGVVQPGRSLRLSCAASGFTFSTYGMHWVRQAPGKGLEWVAVISYDGSNKYYADSVKGRFTISRDDSKNTLYLQMNSLRAEDTAVYYCARGQLLTGYWGQGTLVTVSSGGGGSGGGGSGGGGSELVMTQSPSSLSASVGDRVTITCRASQGISNYLAWYQQKPGKVPKLLIYAASTLQSGVPSRFSGSGSGTDFTLTISSLQPEDVATYYCQKYNSAPFTFGPGTKVEIK
notes: as for B1

target: T1, MAGEB2 peptide … (SEQ ID NO: 1) complexed with HLA-A*02:01 on the cell surface (human); experiment: flow cytometry, peptide-loaded T2 cells;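 note: binding of single-chain Fv antibody constructs, raised in XenoMouse, to peptide-pulsed T2 cells measured by flow cytometry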
T1 construct: whole, on cells; also called pMAGE-HLA; MAGEB2 pMHC
Method: (§1) Binding of pMAGE-HLA scFv constructs, generated from the XenoMouse, on peptide loaded T2 cells was evaluated by flow cytometry.

Point of comparison: B8, Signal/background 202. Against it:
- B1 — higher, 560
- B2 — higher, 205
- B3 — higher, 289
- B4 — higher, 365
- B5 — higher, 431
- B6 — higher, 273
- B7 — higher, 298
- B9 — lower, 193
- B10 — higher, 208
- B11 — higher, 320
- B12 — higher, 481
- B13 — lower, 42
- B14 — lower, 43
- B15 — lower, 176

target: T2, STXBP5 peptide complexed with HLA-A*02:01 on T2 cells (human); experiment: flow cytometry, peptide-loaded T2 cells;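 note: binding of single-chain Fv antibody constructs, raised in XenoMouse, to peptide-pulsed T2 cells measured by flow cytometry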
T2 construct: whole, on cells
Method: as §1

Point of comparison: B15, Signal/background 1. Against it:
- B1 — the same, 1
- B2 — lower, 0.8
- B3 — the same, 1
- B4 — the same, 1
- B5 — lower, 0.9
- B6 — lower, 0.8
- B7 — the same, 1
- B8 — lower, 0.8
- B9 — the same, 1
- B10 — lower, 0.9
- B11 — lower, 0.9
- B12 — higher, 1.1
- B13 — lower, 0.9
- B14 — lower, 0.9

target: T3, MB peptide complexed with HLA-A*02:01 on T2 cells (human); experiment: flow cytometry, peptide-loaded T2 cells;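 note: binding of single-chain Fv antibody constructs, raised in XenoMouse, to peptide-pulsed T2 cells measured by flow cytometry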
T3 construct: whole, on cells
Method: as §1

Point of comparison: B2, Signal/background 0.9. Against it:
- B1 — higher, 1
- B3 — higher, 1.1
- B4 — higher, 1
- B5 — the same, 0.9
- B6 — the same, 0.9
- B7 — higher, 1.2
- B8 — higher, 1
- B9 — the same, 0.9
- B10 — lower, 0.8
- B11 — higher, 1
- B12 — higher, 1
- B13 — the same, 0.9
- B14 — higher, 1
- B15 — higher, 1.1

target: T4, DPYSL4 peptide complexed with HLA-A*02:01 on T2 cells (human); experiment: flow cytometry, peptide-loaded T2 cells;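 note: binding of single-chain Fv antibody constructs, raised in XenoMouse, to peptide-pulsed T2 cells measured by flow cytometry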
T4 construct: whole, on cells
Method: as §1

Point of comparison: B3, Signal/background 1. Against it:
- B1 — the same, 1
- B2 — the same, 1
- B4 — the same, 1
- B5 — lower, 0.9
- B6 — lower, 0.9
- B7 — the same, 1
- B8 — the same, 1
- B9 — lower, 0.9
- B10 — the same, 1
- B11 — higher, 1.1
- B12 — higher, 1.1
- B13 — higher, 1.1
- B14 — the same, 1
- B15 — higher, 1.1

target: T5, SLK peptide complexed with HLA-A*02:01 on T2 cells (human); experiment: flow cytometry, peptide-loaded T2 cells
T5 construct: whole, on cells
Method: as §1

Point of comparison: B1, Signal/background 1. Against it:
- B2 — the same, 1
- B3 — higher, 1.1
- B4 — the same, 1
- B5 — the same, 1
- B6 — the same, 1
- B7 — the same, 1
- B8 — the same, 1
- B9 — the same, 1
- B10 — lower, 0.9
- B11 — the same, 1
- B12 — higher, 1.2
- B13 — higher, 1.1
- B14 — the same, 1
- B15 — higher, 1.3

target: T6, MYOF peptide complexed with HLA-A*02:01 on T2 cells (human); experiment: flow cytometry, peptide-loaded T2 cells
T6 construct: whole, on cells
Method: as §1

Point of comparison: B5, Signal/background 1. Against it:
- B1 — the same, 1
- B2 — lower, 0.9
- B3 — the same, 1
- B4 — the same, 1
- B6 — lower, 0.9
- B7 — higher, 1.2
- B8 — the same, 1
- B9 — lower, 0.9
- B10 — lower, 0.8
- B11 — the same, 1
- B12 — higher, 1.1
- B13 — lower, 0.9
- B14 — lower, 0.9
- B15 — higher, 1.1

target: T7, KEA peptide complexed with HLA-A*02:01 on T2 cells (human); experiment: flow cytometry, peptide-loaded T2 cells
T7 construct: whole, on cells
Method: as §1

Point of comparison: B1, Signal/background 0.9. Against it:
- B2 — the same, 0.9
- B3 — the same, 0.9
- B4 — higher, 1
- B5 — the same, 0.9
- B6 — lower, 0.8
- B7 — the same, 0.9
- B8 — the same, 0.9
- B9 — the same, 0.9
- B10 — the same, 0.9
- B11 — the same, 0.9
- B12 — higher, 1
- B13 — the same, 0.9
- B14 — higher, 1
- B15 — higher, 1

target: T8, ADF peptide complexed with HLA-A*02:01 on T2 cells (human); experiment: flow cytometry, peptide-loaded T2 cells
T8 construct: whole, on cells
Method: as §1

Point of comparison: B11, Signal/background 1. Against it:
- B1 — lower, 0.9
- B2 — the same, 1
- B3 — the same, 1
- B4 — the same, 1
- B5 — the same, 1
- B6 — lower, 0.9
- B7 — the same, 1
- B8 — higher, 1.1
- B9 — the same, 1
- B10 — the same, 1
- B12 — the same, 1
- B13 — higher, 1.1
- B14 — higher, 1.3
- B15 — higher, 1.1

target: T9, CNDP2 peptide complexed with HLA-A*02:01 on T2 cells (human); experiment: flow cytometry, peptide-loaded T2 cells
T9 construct: whole, on cells; also called CNPD2
Method: as §1

Point of comparison: B6, Signal/background 0.8. Against it:
- B1 — higher, 1
- B2 — the same, 0.8
- B3 — higher, 0.9
- B4 — higher, 1
- B5 — higher, 1
- B7 — higher, 1
- B8 — the same, 0.8
- B9 — higher, 0.9
- B10 — the same, 0.8
- B11 — higher, 1
- B12 — higher, 1
- B13 — the same, 0.8
- B14 — the same, 0.8
- B15 — higher, 1

target: T10, COX14 peptide complexed with HLA-A*02:01 on T2 cells (human); experiment: flow cytometry, peptide-loaded T2 cells
T10 construct: whole, on cells
Method: as §1

Point of comparison: B14, Signal/background 1. Against it:
- B1 — the same, 1
- B2 — lower, 0.9
- B3 — lower, 0.9
- B4 — the same, 1
- B5 — the same, 1
- B6 — lower, 0.9
- B7 — higher, 1.1
- B8 — lower, 0.9
- B9 — lower, 0.8
- B10 — the same, 1
- B11 — lower, 0.9
- B12 — lower, 0.9
- B13 — higher, 1.2
- B15 — higher, 1.1
